Data taken from patent US20090117108A1 (published 2009).

Tests used:
[1] = target: T1, purified CEA (carcinoembryonic antigen) (UniProt P06731 35-685, limits assumed); assay: ELISA, CEA coated at 1 ug/ml, CEA-scTsAb diluted from 10 ug/ml, detected by anti-c-myc antibody
T1 construct: Bought antigen; also called purified CEA (Fitzerald, German); purified CEA(R&D)
T1 sequence (looked up): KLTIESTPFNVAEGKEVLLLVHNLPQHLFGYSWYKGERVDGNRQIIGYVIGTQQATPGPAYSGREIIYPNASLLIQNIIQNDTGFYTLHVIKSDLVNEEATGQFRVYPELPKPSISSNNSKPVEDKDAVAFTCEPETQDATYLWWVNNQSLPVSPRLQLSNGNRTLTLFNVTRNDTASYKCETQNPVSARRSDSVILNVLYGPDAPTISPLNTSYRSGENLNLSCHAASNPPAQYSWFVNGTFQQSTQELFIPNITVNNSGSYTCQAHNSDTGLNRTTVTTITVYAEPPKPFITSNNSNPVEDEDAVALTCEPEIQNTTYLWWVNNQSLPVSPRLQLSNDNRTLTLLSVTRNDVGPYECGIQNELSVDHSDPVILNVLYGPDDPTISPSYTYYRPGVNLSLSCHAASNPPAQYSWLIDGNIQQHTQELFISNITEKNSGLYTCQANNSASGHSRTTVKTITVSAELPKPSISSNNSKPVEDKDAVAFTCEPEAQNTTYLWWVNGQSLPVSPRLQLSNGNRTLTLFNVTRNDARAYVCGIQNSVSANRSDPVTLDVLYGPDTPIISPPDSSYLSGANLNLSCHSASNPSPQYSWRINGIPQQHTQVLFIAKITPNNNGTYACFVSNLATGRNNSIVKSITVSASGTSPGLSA

rhCD28-FC chimera (R&D) = target: T2, rhCD28-FC chimera (R&D) (human (printed as 'rh'), UniProt P10747 19-152); assay: ELISA, rhCD28-FC chimera coated at 1 ug/ml, CEA-scTsAb diluted from 10 ug/ml, detected by anti-c-myc antibody
T2 construct: Bought from R&D; Fc part of the bought chimera not given
T2 sequence (P10747 19-152, change not shown): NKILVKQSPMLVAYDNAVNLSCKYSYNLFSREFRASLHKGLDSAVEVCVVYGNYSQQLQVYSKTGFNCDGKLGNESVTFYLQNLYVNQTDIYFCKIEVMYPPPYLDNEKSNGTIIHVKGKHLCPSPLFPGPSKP

B1: recombinant anti-CEA/CD3/CD28 single-chain tri-specific antibody CEA-scTsAb (other)
chain: MGLEQVQLQQSGAELMKPGASVKISCKATGYTFSDYWIEWVKQRPGHGLEWIGEILPGSGRTDYNERFKGKATFTGDVSSNTAYMKLSSLTSEDSAVYYCATGTTPFGYWGQGTLVTVSATSTPSHNSHQVPSAGGPTANSGSRDIVLTQSPASLAVSLGQRATISCRASQSVSTSSYTYMHWYQQKPGQPPKLLIKYASNLESGVPARFSGSGSGTDFTLNIHPVEEEDTAYYYCQHSWEIPRTFGGGTKLEIKEFNSTYRVVSVLTVLHQDWLNGKEYKCKSTEVKLVESGPELVKPGASMKISCKASGYSFTGYTMNWVKQSHGKNLEWMGLINPYKGVSTYNQKFKDKATLTVDKSSSTAYMELLSLTSEDSAVYYCARSGYYGDSDWYFDVWGAGTSVTVSSTSGGGGSGGGGSGGGGSSRDIQMTQTTSSLSASLGDRVTISCRASQDIRNYLNWYQQKPDGTVKLLIYYTSRLHSGVPSKFSGSGSGTDYSLTISNLEQEDIATYFCQQGNTLPWTFAGGTKLELKRAVDFQNALLVRYTKKVPQVSTPTPVEVSHMQVQLQESGPGLVKPSQTLSLTCTVSGFSLSDYGVHWVRQPPGKGLECLGVIWGGGTNYNSALMSRRVTSSDDTSKNQFSLKLSSVDTAVYYCARSYYYSMDYWGQGTLVTVSSGTEQKLISEEDLNGAAHHHHHHEQ
notes: Single linear tri-specific antibody expressed solubly in the E. coli cytoplasm and purified by DEAE flow-through to about 70-75% purity; also called anti-CEA/CD3/CD28 scTsAb
B1: binds [1]; binds (rhCD28-FC chimera (R&D)).
